Here are results for 7 molecules from publication PMC7059403 (Journal of the American Chemical Society, 2020).

One series addresses T1, KdlD, Kdl dehydratase (Cupriavidus necator, UniProt Q0K4R0).
T1 sequence (Q0K4R0 1-310): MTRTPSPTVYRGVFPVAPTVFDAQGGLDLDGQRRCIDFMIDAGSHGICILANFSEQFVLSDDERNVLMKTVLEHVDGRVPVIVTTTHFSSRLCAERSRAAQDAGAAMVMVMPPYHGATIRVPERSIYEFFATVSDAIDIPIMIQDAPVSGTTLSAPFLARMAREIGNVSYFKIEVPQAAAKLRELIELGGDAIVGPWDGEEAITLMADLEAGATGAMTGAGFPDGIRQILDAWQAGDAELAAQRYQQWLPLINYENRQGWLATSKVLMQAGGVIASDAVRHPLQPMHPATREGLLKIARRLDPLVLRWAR
Description: in vitro activity assay. Type of series: biochemical.

Series [1] concerns the target T2, LyxD (H16_B0217), L-lyxonate dehydratase (Cupriavidus necator, UniProt Q0K4Q6).
T2 sequence (Q0K4Q6 1-391): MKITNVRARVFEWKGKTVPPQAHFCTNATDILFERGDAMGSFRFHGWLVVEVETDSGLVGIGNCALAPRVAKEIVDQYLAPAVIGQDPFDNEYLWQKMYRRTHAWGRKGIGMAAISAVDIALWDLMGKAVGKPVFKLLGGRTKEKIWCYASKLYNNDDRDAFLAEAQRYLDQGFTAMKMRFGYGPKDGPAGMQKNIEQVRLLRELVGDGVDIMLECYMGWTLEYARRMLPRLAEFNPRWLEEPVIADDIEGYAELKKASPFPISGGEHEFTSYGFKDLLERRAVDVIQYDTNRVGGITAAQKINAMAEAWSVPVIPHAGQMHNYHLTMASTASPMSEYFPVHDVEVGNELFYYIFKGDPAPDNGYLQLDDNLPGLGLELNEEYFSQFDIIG
Description: in vitro activity assay. The class given is biochemical.

Series [2] concerns the target T3, ClxD (H16_B0216), Clx decarboxylase (Cupriavidus necator, UniProt Q0K4Q7).
T3 sequence (Q0K4Q7 1-338): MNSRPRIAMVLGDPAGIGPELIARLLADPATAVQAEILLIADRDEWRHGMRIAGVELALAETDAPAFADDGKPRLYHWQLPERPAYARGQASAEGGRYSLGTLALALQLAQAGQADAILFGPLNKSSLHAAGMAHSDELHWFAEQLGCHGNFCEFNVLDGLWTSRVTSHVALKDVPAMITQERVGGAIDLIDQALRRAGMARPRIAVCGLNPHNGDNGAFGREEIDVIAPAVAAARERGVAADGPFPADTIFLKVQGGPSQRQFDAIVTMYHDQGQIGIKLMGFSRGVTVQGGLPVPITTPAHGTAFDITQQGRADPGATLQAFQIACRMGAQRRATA
In words: in vitro decarboxylation assay. The class given is biochemical. The conditions noted are these: with 2-carboxy-L-lyxonate; catalytic NAD+, regenerated in the reaction.

Series [3] has as its target T4, KgsD (H16_B0212), Kgs dehydrogenase (Cupriavidus necator, UniProt Q0K4R1).
T4 sequence (Q0K4R1 1-527): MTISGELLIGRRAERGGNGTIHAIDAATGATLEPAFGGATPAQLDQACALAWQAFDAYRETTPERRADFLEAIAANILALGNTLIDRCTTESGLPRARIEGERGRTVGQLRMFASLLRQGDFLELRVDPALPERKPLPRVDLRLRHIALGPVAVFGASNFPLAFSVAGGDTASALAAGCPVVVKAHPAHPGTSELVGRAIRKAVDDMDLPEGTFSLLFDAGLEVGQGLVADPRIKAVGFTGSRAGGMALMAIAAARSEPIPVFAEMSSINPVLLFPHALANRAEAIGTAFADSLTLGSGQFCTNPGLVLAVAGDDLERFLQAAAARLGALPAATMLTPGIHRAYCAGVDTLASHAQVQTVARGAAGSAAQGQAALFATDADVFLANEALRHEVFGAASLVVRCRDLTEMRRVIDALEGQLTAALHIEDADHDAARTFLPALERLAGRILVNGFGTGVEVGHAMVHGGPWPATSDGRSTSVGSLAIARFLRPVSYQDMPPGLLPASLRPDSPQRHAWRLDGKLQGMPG
Description: in vitro activity assay. Type of series: biochemical.

Substrate in series [4]: O=C(O)C(=O)C(=O)[C@H](O)[C@@H](O)CO
Description: in vitro enzyme kinetics. The class given is biochemical, Cupriavidus necator.

Substrate in series [5]: O=C1O[C@H]([C@@H](O)CO)C(=O)C1=O
Description: in vitro enzyme kinetics. The class given is biochemical, Cupriavidus necator.

Substrate in series [6]: O=C(O)C(O)(C(=O)O)[C@H](O)[C@@H](O)CO
Description: in vitro enzyme kinetics. Type of series: biochemical, Cupriavidus necator. The conditions noted are these: NAD+ as catalytic cofactor.

One may read the Km as the substrate concentration at which the rate is half of its maximum.

On to `O=C(O)C(=O)C[C@@H](O)CO` [2-keto-3-deoxy-L-lyxonate], for which, at KdlD, Kdl dehydratase, the “in vitro activity assay (dehydration)” value is “heterologously expressed and display the predicted in vitro activities”.
In the case of `O=C(O)[C@H](O)[C@H](O)[C@@H](O)CO` [L-lyxonate], the “in vitro activity assay (dehydration)” value in series [1] was “heterologously expressed and display the predicted in vitro activities”.
Consider `NC(=O)c1ccc[n+]([C@@H]2O[C@H](COP(=O)(O)OP(=O)(O)OC[C@H]3O[C@@H](n4cnc5c(N)ncnc54)[C@H](O)[C@@H]3O)[C@@H](O)[C@H]2O)c1` [NAD^+], for which the “in vitro decarboxylation assay; stopped-flow absorbance at 340 nm” value in series [2] is given as “generates L-lyxonate (Figure 1C), even with sub-stoichiometric amounts of NAD^+”.
Regarding `O=CCCC(=O)C(=O)O` [α-ketoglutarate semialdehyde], the “in vitro activity assay (oxidation)” value in series [3] was “heterologously expressed and display the predicted in vitro activities”.

B1: DkgM (H16_B1217), DKG mutase (Cupriavidus necator H16) (protein)
chain: MESQWTAVLVEKFGHSFSAYELDGGERRFSVQLPDYPHEFVVDRERLCGYVGHYGVQTFAHAGDGGAAVIAVDLMRGAVRARLDCSPYHRIHGLQIDRQGRVYALSERDNMLVVFEAPLEHPVPDRAVPAGGVKSHLFVLSADGERAYVTNLLSHTVTLVHPYDATRAPRAAYAGRRPEGCCLSRDEAALYVASRDDHSLTRLDARTMEAVRTVPTGEDPTRIYWSPDDRLFVLNYGERSIRVFDPDTLAETGRVDTGARPIALAFHPADPSRAYIALNDHTVGQLDLPGLALRHAFTTGKEPDGLAILALPTR
In the case of B1, in “in vitro enzyme kinetics [4]”, the Km was 81 ± 7 µM and the kcat came to 0.6 ± 0.1 s−^1.

B2: DhaL (H16_A3012), DHA lactonase (Cupriavidus necator H16) (protein)
chain: MDTVRIFDERARELPLAGERLEQLACRATWSEGPVWLPDEDAVLWSDIPNDRILRWSAADGMSVWRTGAGFTNGHALEADGSLLHCSHGKRAIVRTHRSGARLGEDELVVSHYQGRRLNSPNDIVVKRDGTLWFTDPPYGILSDREGHRADPELRHNYVFRYDPAVGALEVASDLIEEPNGLAFSPDEDVLYVSDTSAALRDDGHHHIVAFDVVAGRVLANPRVFAVIAPGLPDGFRVDRRGWLFTSSASGVQVFHPDGTRLAHIPVPEKVGNLVFGGAEGDALFIAASTSLYRLRLGQRLT
B2: in the series “in vitro enzyme kinetics [5]”, the Km was found to be 490 ± 70 µM and the kcat was 8.0 ± 0.6 s−^1.

B3: ClxD (H16_B0216), Clx decarboxylase (Cupriavidus necator H16) (protein)
chain: MNSRPRIAMVLGDPAGIGPELIARLLADPATAVQAEILLIADRDEWRHGMRIAGVELALAETDAPAFADDGKPRLYHWQLPERPAYARGQASAEGGRYSLGTLALALQLAQAGQADAILFGPLNKSSLHAAGMAHSDELHWFAEQLGCHGNFCEFNVLDGLWTSRVTSHVALKDVPAMITQERVGGAIDLIDQALRRAGMARPRIAVCGLNPHNGDNGAFGREEIDVIAPAVAAARERGVAADGPFPADTIFLKVQGGPSQRQFDAIVTMYHDQGQIGIKLMGFSRGVTVQGGLPVPITTPAHGTAFDITQQGRADPGATLQAFQIACRMGAQRRATA
B3: in “in vitro enzyme kinetics [6]”, the Km is 800 ± 400 µM and the kcat is reported as 0.33 ± 0.08 s−^1.
